Target: the molecule itself
Assay: SEC

B1: recombinant A. fumigatus Hsp90 (rAfHsp90), full length, 6×His-tagged (natural protein)
chain: not shown
Question: For B1, which “stoichiometry N” value is on record?
Answer: 2

Reference: paper PMC7855945 (Cellular microbiology, 2020)
